{"source": "paper PMC8196545", "about": "(Cell reports, 2021)", "data": [{"molecular_target": "HIV-1 NL4-3 Env on infected cells (HIV-1 group M subtype B, NL4-3 (pNL4-3 …, strain))", "values": [{"binder": "c5616 (antibody, V domains shown) VH: LVRLAESGGGVVRPGESLTLSCATSGFSFSSYGMHWVRQIPGKGLEWVAVIWNDGSRRYYSDSVQGRFTIAKDTSNKTLSLHMRDLQVGDTAVYFCARAYGPQSEMDSWGLGTLVTVSS VL: SSELTQPPSVSVSPGQTAILTCVGDILPRKHAYWYRQRAGRAPTLIVFGDNNRPSGIPARFSGFTSGTVATLVITAAQVDDGGDYFCYSADNSGNHRGVFGGGTRLTIL", "binding result": "binds"}, {"binder": "c5260 (antibody, V domains shown) VH: QVRLQESGPRLVKPSETLSLTCTVSGASVTSYSWSWIRYSAERGLEWIGRILPTIGSNRANPSLHFRVGMSADTSKNLLSLRLTSLTAADTAIYFCARDLVRDYDSWGGDYSTFHGIDVWGQGTTVIVSL VL: NSLLTQPPSVSESPGKTVNISCTRTSGAITWDFVQWYQKRPGSVPTVVIYANDRRPSGVPDRFSGSIDSSSNSAALTISRLKTEDEAEYYCQSFHPRSHVVFGGGTKLTVL", "binding result": "binds"}, {"binder": "c807 (antibody, V domains shown) VH: QVQLQESAPRLVTTSETLSLTCTVFGGQFYPFFYSWVRQSPGGKLQWIGRKYSSTGSMRTNPSLHTRVGMPLDHSKSQIGLTMSSMTAADTGIYYCVRDIMREFDSVDGSGGVYGGVDVWGRGTTVTVSS VL: NFMLTQPPSVSESPGKTVTISCTRNSGSIASNSVYWYRQRPGSPPTTLIHDNNRRPTGVPDRFSASIDTSSNSASLTISSLKTEDEADYYCQSYDNGNHVIFGGGTNLLVL", "binding result": "binds"}, {"binder": "c10819 (antibody, V domains shown) VH: EMRLEESGGALVKPGGSLRLSCVASGFKLSEWSLMWVRQAPGKGLQWVSSISLNQDYISYAGSVRGRFDVFRDRTQTSLLLNMNKLKTEDTGIYFCARVHAWRYFDWVNRRSPVEKVLSIDLWGRGTLVIVSS VL: SGATQPPSVSVSKGETARITCSGVELSSQYVSWYRQRPGQSPVLVMFHNNSRASRIPERFSASDSGDTATLTIAGAQDVDEAEYYCQTWDSKNYVTFGGGTKLTVL", "binding result": "binds"}, {"binder": "c10969 (antibody, V domains shown) VH: AGHLVESGGKLISPGGSLSLSCVASGFTFKNAHMTWVRQVPGKGLEWIALMKSHADGSHTDYSPSVRDRCAISRDDSTSSLFLHLYNLQLDDTGIYYCVHLSSPDEWGLGTAVTVSS VL: HIVLTQSPVTLSGSQGDTVALSCRANQSLRSHLAWYQHRPGQTPKVLIYEVSRRRPATPPRFSGSGSGTEFTLVIRGLEPEDSAVYYCQQGDFWPFSFGQGTNLEIT", "binding result": "binds"}, {"binder": "c5358 (antibody, V domains shown) VH: RLQLRESGPALVRPSETLSLTCTVSGGPTSDFFWSWVRQAAGGRLEWIGRIYASDGSTKMNPALHTRIGLELNTLENIFNLRLLSVTAADTAVYFCVREEVHGYDSWNSDSGTYNGIDAWGLGTPVTVSS VL: SVVLTQPPSVSGSPGETVIISCTRSSGAIPSRHVQWYRQRPGGLPARVIFANSQRPHWVPDRYSASVDASSNTASLTISGLQPDDEAKYFCQSFDDTRHHHIVFGGGTEVIVV", "binding result": "binds"}, {"binder": "c26412 (antibody, V domains shown) VH: EVRLVQSGGGVVRPGGSLRLSCSASGFSFSRSAMSWVRQAPGKELQWVAAISGSGNSHHISDAFRGRVSISRNNENDSVFLQMSNLRLDDTGKYFCAKSEGGRSGWYYWATEYFQHWGQGAVVTVSS VL: SSELTQPPSVSVSPGQTARISCSGHTLPQRYATWYQQKPGRAPLLIIFGNNERPSGIPARFSVSASGKSAILTITGVQAEDEGDYICQSSDGSHTSLFFGGGTKLTVL", "binding result": "binds"}, {"binder": "c5299 (antibody, V domains shown) VH: QVRLLESGPGLVKPSGTLSLTCHVSGASVTSFSWSWVRQSAQKGLQWLGRILPTNGSNKSNPSLHPRVGLAADTSTNQLSLRLTSVTAADSGIYFCARDFVRDYDSWASDYSTLHGIDVWGPGTSVTVSF VL: NSLLTQPPSVSESPGKTVTISCTRTSGDITWDFVQWYRHRPGTSPTLVIFANDRRASGVPDRFSGSIDSSSNTAALTISGLKTDDEADYYCQSFHPRYHVVFGGGTKLTVL", "binding result": "binds"}]}]}
